According to patent publication US11370846B2, “Compositions and methods to regulate Renalase in the treatment of cancer” (Yale University, priority 2014, dated 2022):
Entries after “also recorded” stand apart in the source; their conditions may differ. Where two headings read alike, the source gives them in different places.

Experiments:
melanoma cells = assay: Melanoma cell lines in culture, viability/growth; assay type: cell-based, human
Procedure: FIG. 19A through FIG. 19D are a series of images and charts showing that inhibition of RNLS signaling is cytotoxic to melanoma cells in vitro. […] FIG. 19B comprises two charts depicting relative cell viability: Left panel: Cells were treated with indicated antibodies for 72 hrs and cell viability was determined using WST-1; m28-RNLS (also known as 1D-28-4), m37-RNLS (also known as 1D-37-10): monoclonal antibodies raised against RNLS peptide RP220; Right panel: A375.S2 cells treated with increasing doses of m28-RNLS for 72 hrs and cell viability determined with a WST-1 assay; n=6, * indicates p<0.05 and ** indicates p<0.005. FIG. 19C comprises representative photos of A375.S2, SkMe128, and SkMe15 after 72 hrs incubation with either control rabbit IgG or m28-RNLS. FIG. 19D is a chart depicting relative cell viability, comprising amino acid (AA) sequence of RNLS peptide antagonist (RP220A).
For additional studies, cell viability was determined using WST-1 reagent (Roche Diagnostics, Indianapolis, Ind., USA) according to the manufacturers' instruction. Absorbances were read using a microplate reader (Power Waves XS, BioTek Instruments, Winooski, Vt., USA).

p38 MAPK = p38 MAPK phosphorylation in Panc1 cells by western blot; assay type: cell-based, human; details: beginning at day 1 post treatment
Procedure: (§1) FIG. 26A through FIG. 26E are a series of images and charts showing that inhibition of RNLS signaling induces apoptosis and cell cycle arrest. […] FIG. 26B is a chart depicting FACS analysis of Panc1 cells in culture treated with either m28-RNLS (30 μg/ml) or 100 μM etoposide (positive control) for 4 days; n=3, * indicates p<0.05. FIG. 26C is an image showing Panc1 cells treated with polyclonal ab31291 or with goat IgG as a negative control, and cells lysates probed for p38 and Bax activation by western blot. […] FIG. 26E is a chart showing the effect of m28-RNLS on cell cycle of Panc1 cells determined by FACS analysis; green curve: no treatment, purple curve: rabbit IgG, red curve: m28-RNLS 30 μg/ml.

Panc1 cells = assay: FACS apoptosis and cell cycle analysis of Panc1 cells; assay type: cell-based, human; details: 30 μg/ml
Procedure: as §1
For cell cycle analysis, cultured cells were dissociated using 10 mM EDTA, fixed with ice-cold 70% ethanol, digested with RNAse A, and stained with propidium iodide. Propidium staining was detected using a BD FACSCalibur flow cytometer (BD Biosciences, San Jose, Calif., USA), and analyzed using CellQuest software.
Apoptosis was detected and quantified as previously done (Guo et al., 2012 Cancer Science. 103(8):1474-80). […] At least 20,000 events were collected on a BD FACSCalibur flow cytometer (BD Biosciences, San Jose, Calif., USA) and analyzed using CellQuest software.

STAT3 = STAT3 phosphorylation in Panc1 cells by western blot; assay type: cell-based, human; details: antibody treatment for up to 4 days; listed as m28-RNLS
Text: FIG. 27A through FIG. 27E are a series of images and charts showing the interaction between RNLS and STAT3, and the mechanistic model of inhibition by m28-RNLS. FIG. 27A is an image showing activation of STAT3 by RNLS in Panc1 cells; Panc1 cells in culture treated with either BSA or RNLS, and STAT3 phosphorylation assessed by western blot; p-Ser^727-STAT3: phosphorylation at serine 727, p-Y^705-STAT3: phosphorylation at tyrosine 705; representative study. FIG. 27B is a chart depicting the quantification of STAT3 phosphorylation with RNLS; signals normalized to total STAT3; n=3, *=P<0.05. […] FIG. 27D is a chart showing the quantification of STAT3 phosphorylation with m28-RNLS; signals normalized to GAPDH loading control; n=3, *=P<0.05. FIG. 27E depicts the proposed mechanistic model for antitumor activity of m28-RNLS.

PDACC = PDACC growth with anti-RNLS antibodies, WST-1; assay type: cell-based, human; details: 72 hrs
Procedure: FIG. 25A through FIG. 25E are a series of charts and images showing that inhibition of RNLS signaling is cytotoxic to cancer cells in vitro and in vivo. FIG. 25A is a chart showing relative cell viability following transient transfection of Panc1 cells using a RNLS-specific siRNA, or a non-specific control siRNA, and cell viability assayed 96 h later using the WST-1 reagent; n=6, ** indicates p<0.001. FIG. 25B is a chart showing relative cell viability when cells were treated with indicated antibodies for 72 hrs and cell viability determined using WST-1; m28-RNLS and m37-RNLS: monoclonal antibodies raised against RNLS peptide RP220, ab31291: Abcam polyclonal antibody raised against a partial sequence of RP-220; n=6, * indicates p<0.005. […] FIG. 25D is a chart showing tumor volume increase after athymic nude mice received subcutaneous injection of Panc1 cells transduced with RNLS shRNA (sh-RNLS) or control (sh-Control); tumor volume measured every […] for up to 30 days, n=6 each; * indicates p<0.05. FIG. 25E is chart showing tumor volume increase after nude mice were xenografted with BxPC3; tumor volume measured prior to treatment every 3-4 days with 2 mg/kg of either rabbit IgG as a negative control or with m28-RNLS, n=10, * indicates p<0.05.

[1] = test system: renalase-1 and renalase-2; assay: Renalase isoform specificity of anti-renalase antibodies; assay type: binding, human; details: renalase-1 vs renalase-2
Procedure: Peptides were used as immunogens. The peptides generated ranged from 9 to 21 amino acids and corresponded to regions of the renalase-1 and renalase-2 proteins. […] Each peptide was conjugated to the adjuvant KLH via the cysteine and used to immunize 6 rabbits. Antiserum collected from each animal was screened for anti-renalase antibody titer by ELISA assay using both the relevant peptide (BSA-conjugate) or full length renalase-1 or 2. The antisera were also tested for their ability to detect endogenous renalase in tissue lysates by western blot. Using these screening criteria the animals producing antibodies with the preferred characteristics were selected. In some examples and for some peptides, several animals produced antibodies with the required specificity. […] Polyclonal antibodies raised against all of the peptides were generated by purification of total IgG from terminal bleeds by protein G chromatography followed by further purification on peptide affinity chromatography. Further and using standard procedures, lymphocytes from the spleens of selected animals were fused to myeloma cells for hybridoma generation. The hybridoma supernatants were screened for binding to both the peptides against which they were raised and secondarily screened against whole renalase protein. Selected hybridomas were sub-cloned and expanded for antibody purification. The monoclonal antibodies were purified from conditioned hybridoma culture supernatant by protein A affinity chromatography.

B1: 1D-28-4: rabbit anti-renalase monoclonal raised against peptide RP-220 (antigen 1D); heavy chain SEQ ID NO:9, light chain SEQ ID NO:10 (antibody)
heavy: METGLRWLLLVAVLKGVQCQSVEESGGRLVTPGTPLTLTCTVSGFSLSSFAVGWVRQAPGKGLEYIGIISSVGITRYASWAAGRFTISKTSTTVDLKITSPTTEDTATYFCARYGYSGDVNRLDLWGQGTLVTVSSGQPKAPSVFPLAPCCGDTPSSTVTLGCLVKGYLPEPVTVTWNSGTLTNGVRTFPSVRQSSGLYSLSSVVSVTSSSQPVTCNVAHPATNTKVDKTVAPSTCSKPTCPPPELLGGPSVFIFPPKPKDTLMISRTPEVTCVVVDVSQDDPEVQFTWYINNEQVRTARPPLREQQFNSTIRVVSTLPIAHQDWLRGKEFKCKVHNKALPAPIEKTISKARGQPLEPKVYTMGPPREELSSRSVSLTCMINGFYPSDISVEWEKNGKAEDNYKTTPAVLDSDGSYFLYSKLSVPTSEWQRGDVFTCSVMHEALHNHYTQKSISRSPGK
light: MDTRAPTQLLGLLLLWLPGATFAQVLTQTASPVSAAVGGTVTINCQASQSVYDNNNLAWYQQKPGQPPKQLIYGASTLASGVSSRFKGSGSGTQFTLTISGVQCDDAATYYCLGEFSCSSADCFAFGGGTEVVVKGDPVAPTVLIFPPSADLVATGTVTIVCVANKYFPDVTVTWEVDGTTQTTGIENSKTPQNSADCTYNLSSTLTLTSTQYNSHKEYTCKVTQGTTSVVQSFNRGDC
modifications: oryctolagus cuniculus
Melanoma cells
  melanoma cell growth/viability in culture: inhibits melanoma cells in culture
Melanoma cells; listed as m28-RNLS
  melanoma cell growth/viability in culture: decreased the viability of all (total of 5) melanoma cell lines tested
p38 MAPK
  phosphorylation of p38 MAPK: sustained phosphorylation
Panc1 cells
  cell cycle of Panc1 cells: pre-G2 cell cycle arrest
Panc1 cells; 4 days
  apoptosis of Panc1 cells: caused apoptosis
STAT3
  p-Y705-STAT3 in Panc1: long-lasting and sustained decrease; also recorded: inhibits STAT3 phosphorylation
PDACC
  PDACC growth: inhibitory effects
[1]
  renalase isoform specificity: recognize renalase-1 and renalase-2
